Laboratory results as given in US20250297004A1, “NECTIN-4 BINDING AGENTS” (INNATE PHARMA, priority 2022, published 2025).

Tests used:
Experiment in all cases: binding to HEK293T cells expressing Nectin-4 mutant
human Nectin-4 Mutant 6 = biological target: T1, human Nectin-4 Mutant 6 (human, UniProt Q96NY8 32-510)
T1 construct: Expressed on transfected HEK293T cells; also called H238A/I239T/H241Q
T1 chain: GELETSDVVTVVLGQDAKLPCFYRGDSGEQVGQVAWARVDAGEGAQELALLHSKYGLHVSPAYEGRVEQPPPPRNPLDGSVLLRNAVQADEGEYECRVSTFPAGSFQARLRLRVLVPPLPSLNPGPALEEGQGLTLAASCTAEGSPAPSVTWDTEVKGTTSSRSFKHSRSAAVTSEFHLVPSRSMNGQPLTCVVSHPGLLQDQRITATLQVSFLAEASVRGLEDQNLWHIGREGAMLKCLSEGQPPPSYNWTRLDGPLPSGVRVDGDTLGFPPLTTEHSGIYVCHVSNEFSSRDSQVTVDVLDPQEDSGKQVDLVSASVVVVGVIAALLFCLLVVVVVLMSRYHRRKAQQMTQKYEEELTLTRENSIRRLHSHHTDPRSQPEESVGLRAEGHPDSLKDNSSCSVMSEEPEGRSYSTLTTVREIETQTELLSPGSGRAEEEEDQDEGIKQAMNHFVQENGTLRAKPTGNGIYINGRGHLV

human Nectin-4 Mutant 8 = biological target: T2, human Nectin-4 Mutant 8 (human, UniProt Q96NY8 32-510)
T2 construct: Expressed on transfected HEK293T cells; also called T190A/T191Q/S193A
T2 chain: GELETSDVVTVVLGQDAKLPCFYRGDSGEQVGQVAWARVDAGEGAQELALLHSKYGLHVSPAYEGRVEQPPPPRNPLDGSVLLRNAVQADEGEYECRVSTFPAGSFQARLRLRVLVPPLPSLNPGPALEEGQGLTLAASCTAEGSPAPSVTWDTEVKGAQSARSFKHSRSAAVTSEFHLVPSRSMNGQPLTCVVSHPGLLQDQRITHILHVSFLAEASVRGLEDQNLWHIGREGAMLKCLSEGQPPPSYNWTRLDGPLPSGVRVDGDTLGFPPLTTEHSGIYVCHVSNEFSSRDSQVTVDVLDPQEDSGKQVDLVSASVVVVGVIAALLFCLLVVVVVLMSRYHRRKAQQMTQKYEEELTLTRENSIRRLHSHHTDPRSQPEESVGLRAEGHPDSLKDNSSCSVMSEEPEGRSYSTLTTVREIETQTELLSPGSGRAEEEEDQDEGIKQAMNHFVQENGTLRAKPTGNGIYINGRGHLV

human Nectin-4 Mutant 2 = biological target: T3, human Nectin-4 Mutant 2 (human, UniProt Q96NY8 32-510)
T3 construct: Expressed on transfected HEK293T cells; also called V90S/P92A/A93S/E95A/G96D
T3 chain: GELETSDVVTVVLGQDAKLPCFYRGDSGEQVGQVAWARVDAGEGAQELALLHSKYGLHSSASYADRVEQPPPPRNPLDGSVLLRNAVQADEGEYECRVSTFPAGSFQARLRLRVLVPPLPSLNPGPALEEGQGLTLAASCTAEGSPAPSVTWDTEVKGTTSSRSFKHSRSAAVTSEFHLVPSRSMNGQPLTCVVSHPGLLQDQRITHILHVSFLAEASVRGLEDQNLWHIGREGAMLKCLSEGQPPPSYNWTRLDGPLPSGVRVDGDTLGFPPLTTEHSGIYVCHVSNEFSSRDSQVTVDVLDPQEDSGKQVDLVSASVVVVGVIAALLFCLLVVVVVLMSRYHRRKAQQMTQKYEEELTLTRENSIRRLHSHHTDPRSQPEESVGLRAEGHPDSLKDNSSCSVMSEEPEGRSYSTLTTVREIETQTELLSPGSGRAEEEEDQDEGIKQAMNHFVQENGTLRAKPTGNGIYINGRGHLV

human Nectin-4 Mutant 3 = biological target: T4, human Nectin-4 Mutant 3 (human, UniProt Q96NY8 32-510)
T4 construct: Expressed on transfected HEK293T cells; also called A76S/Q77R/E78A/S91N
T4 chain: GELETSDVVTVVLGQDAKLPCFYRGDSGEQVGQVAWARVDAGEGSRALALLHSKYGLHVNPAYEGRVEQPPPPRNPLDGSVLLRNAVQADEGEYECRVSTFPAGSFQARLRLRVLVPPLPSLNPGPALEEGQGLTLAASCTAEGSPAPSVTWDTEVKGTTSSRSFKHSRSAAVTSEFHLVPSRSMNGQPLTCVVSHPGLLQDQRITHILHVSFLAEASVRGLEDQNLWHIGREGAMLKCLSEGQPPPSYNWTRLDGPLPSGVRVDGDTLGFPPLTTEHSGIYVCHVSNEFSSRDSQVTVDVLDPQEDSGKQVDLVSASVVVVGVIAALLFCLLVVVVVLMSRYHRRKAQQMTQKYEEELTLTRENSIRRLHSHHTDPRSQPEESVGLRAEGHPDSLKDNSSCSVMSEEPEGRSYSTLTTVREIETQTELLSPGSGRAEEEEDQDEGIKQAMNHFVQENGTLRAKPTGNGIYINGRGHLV

human Nectin-4 Mutant 9 = biological target: T5, human Nectin-4 Mutant 9 (human, UniProt Q96NY8 32-510)
T5 construct: Expressed on transfected HEK293T cells; also called L150S/S152A/Q234R/I236S
T5 chain: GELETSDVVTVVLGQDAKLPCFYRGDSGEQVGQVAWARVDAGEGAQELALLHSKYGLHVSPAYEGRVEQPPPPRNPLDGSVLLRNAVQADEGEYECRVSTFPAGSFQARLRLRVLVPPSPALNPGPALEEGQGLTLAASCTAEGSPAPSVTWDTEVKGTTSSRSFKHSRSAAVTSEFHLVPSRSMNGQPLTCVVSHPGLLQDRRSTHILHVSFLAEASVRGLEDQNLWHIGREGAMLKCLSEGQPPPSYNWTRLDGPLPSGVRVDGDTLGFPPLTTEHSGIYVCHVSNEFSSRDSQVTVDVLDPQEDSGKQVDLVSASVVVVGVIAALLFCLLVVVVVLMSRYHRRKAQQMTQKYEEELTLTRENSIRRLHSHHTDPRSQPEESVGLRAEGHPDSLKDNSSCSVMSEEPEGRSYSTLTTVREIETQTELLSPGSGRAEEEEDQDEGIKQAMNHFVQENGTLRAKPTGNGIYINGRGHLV

Measured: binding result

B1: chimeric parental 5E7 antibody (antibody, V domains shown)
VH: QVQLQQPGAELVKPGASVKLSCKASGYIFTSYWMHWVKQRPGQGLEWIGEIDPSDSYTNYNQKFKGKATLTLDKSSSTTYMQLSSLTSEDSAVYYCVRGYGNYGDYWGQGTTLTVSS
VL: DVVMTQAAFSNPVTLGTSASISCRSSKSLLHSNGITYLYWYLQKPGQSPQLLIYQMSNLASGVPDRFSSSGSGTDFTLRISRVEAEDVGVYYCAQNLELPWTFGGGTKLEIKR
notes: Chimeric antibody, murine variable domains with human constant regions; also called ch5E7; CHG1-M-1N4-5E7
binds: all assays above

B2: N41 (antibody, V domains shown)
VH: QVQLKQSGPGLVQPSQSLSITCTVSGFSLTNYGVHWVRQSPGKGLEWLGVIWSGGSTDYNAAFISRLSISKDTSKSQVFFKMNSLQADDTAIYYCARELIHAMDNWGQGTSVTVSS
VL: DIQMTQSPASLSVSVGETVTITCRASENIYSNLAWYQQKQGNSPQLLVFAATNLADGVPSRFSGSGSGTQYSLKINSLQSEDFGTYYCQHFWGTPTFGGGTKLEIK
binds: all assays above
